Measurements taken from the supplement of paper PMC7125110.
± gives the standard error. For some of these results: This sample holds only a part of the variants without activity.

B1: glmS ribozyme (parent)
chain: AUAAAAGCGCCAGAACUACAGAAAUGUAGUUGACGAGGAGGAGGUUUAUCGAAUUUUCGGCGGAUGCCUCCAAA

How the values were obtained:
Details in all cases: with glucosamine-6-phosphate
glucosamine-6-phosphate [1] = variants of: B1; test: kcat; higher = faster cleavage; RNA array
Summary of the method: (§1)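 Tiles of sequenced MiSeq chips were imaged over ~14 h at 37 °C. On them, barcoded ribozyme variants had been transcribed in situ by E. coli RNA polymerase and were tracked via a hybridised Cy3 probe while glucosamine-6-phosphate (40 μM to 10 mM) in HEPES/KCl/Mg(OAc)2 buffer flowed in. Per-tile medians, normalised to baseline and to non-cleaving reference variants, were fit to one- or two-exponential decays for kobs, and weighted Michaelis–Menten fits gave kcat and KM.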

glucosamine-6-phosphate [2] = variants of: B1; test: KM; higher = weaker cofactor use; RNA array
Summary of the method: as §1

glucosamine-6-phosphate [3] = variants of: B1; test: self-cleavage kobs at 640 uM GlcN6P; higher = faster cleavage; RNA array
Summary of the method: as §1

glucosamine-6-phosphate [4] = variants of: B1; test: self-cleavage kobs at 2500 uM GlcN6P; higher = faster cleavage; RNA array
Summary of the method: as §1

glucosamine-6-phosphate [5] = variants of: B1; test: self-cleavage kobs at 10000 uM GlcN6P; higher = faster cleavage; RNA array
Summary of the method: as §1

glucosamine-6-phosphate [6] = variants of: B1; test: self-cleavage kobs at 160 uM GlcN6P; higher = faster cleavage; RNA array
Summary of the method: as §1

glucosamine-6-phosphate [7] = variants of: B1; test: self-cleavage kobs at 40 uM GlcN6P; higher = faster cleavage; RNA array
Summary of the method: as §1

For A39G G43A, the kcat (glucosamine-6-phosphate [1]) was 0.0004 ± 8.6e-05 s⁻¹, the KM (glucosamine-6-phosphate [2]) was 5960 ± 2100 µM and the “self-cleavage kobs at 640 uM GlcN6P” value (glucosamine-6-phosphate [3]) was 5.25e-05 ± 1.8e-05 s⁻¹. For the same variant, the “self-cleavage kobs at 2500 uM GlcN6P” value (glucosamine-6-phosphate [4]) was 0.000109 ± 2.1e-05 s⁻¹ and the “self-cleavage kobs at 10000 uM GlcN6P” value (glucosamine-6-phosphate [5]) was 0.000259 ± 4.9e-05 s⁻¹.

With A64U U69C the kcat (glucosamine-6-phosphate [1]) was 5.01e-05 ± 2.7e-06 s⁻¹, the KM (glucosamine-6-phosphate [2]) was 1050 ± 310 µM and the “self-cleavage kobs at 10000 uM GlcN6P” value (glucosamine-6-phosphate [5]) was 4.48e-05 ± 1.3e-05 s⁻¹.

A33G C70A gave a kcat (glucosamine-6-phosphate [1]) of 1.84e-05 ± 4.6e-06 s⁻¹.

G43U U55A was tested, and the kcat (glucosamine-6-phosphate [1]) was 2.33e-05 ± 3.8e-07 s⁻¹, the KM (glucosamine-6-phosphate [2]) was 1170 ± 67 µM and the “self-cleavage kobs at 160 uM GlcN6P” value (glucosamine-6-phosphate [6]) was less than 1e-05 s⁻¹.

With C11A C34G G60U A64G the kcat (glucosamine-6-phosphate [1]) was less than 1e-05 s⁻¹, the “self-cleavage kobs at 40 uM GlcN6P” value (glucosamine-6-phosphate [7]) was less than 1e-05 s⁻¹ and the “self-cleavage kobs at 640 uM GlcN6P” value (glucosamine-6-phosphate [3]) was less than 1e-05 s⁻¹.

In the case of U54C U65G, the kcat (glucosamine-6-phosphate [1]) is reported as 0.00585 ± 0.0014 s⁻¹, the KM (glucosamine-6-phosphate [2]) is reported as 5410 ± 1800 µM and the “self-cleavage kobs at 40 uM GlcN6P” value (glucosamine-6-phosphate [7]) is reported as 5.43e-05 ± 8.6e-06 s⁻¹. For the same variant, the “self-cleavage kobs at 160 uM GlcN6P” value (glucosamine-6-phosphate [6]) was 0.000122 ± 2.6e-05 s⁻¹, the “self-cleavage kobs at 640 uM GlcN6P” value (glucosamine-6-phosphate [3]) was 0.000671 ± 0.00011 s⁻¹ and the “self-cleavage kobs at 2500 uM GlcN6P” value (glucosamine-6-phosphate [4]) was 0.00207 ± 0.00032 s⁻¹. For the same variant, the “self-cleavage kobs at 10000 uM GlcN6P” value (glucosamine-6-phosphate [5]) was 0.00371 ± 0.00042 s⁻¹.

In the case of A39U U57A, the kcat (glucosamine-6-phosphate [1]) is reported as 0.0002 ± 1.2e-05 s⁻¹, the KM (glucosamine-6-phosphate [2]) is reported as 4780 ± 530 µM and the “self-cleavage kobs at 640 uM GlcN6P” value (glucosamine-6-phosphate [3]) is reported as 2.12e-05 ± 7.4e-06 s⁻¹. The “self-cleavage kobs at 2500 uM GlcN6P” value (glucosamine-6-phosphate [4]) was 7.13e-05 ± 1e-05 s⁻¹ and the “self-cleavage kobs at 10000 uM GlcN6P” value (glucosamine-6-phosphate [5]) was 0.000134 ± 1.5e-05 s⁻¹.

For G59U C68U, the kcat (glucosamine-6-phosphate [1]) was 1.5e-05 ± 6.2e-06 s⁻¹, the “self-cleavage kobs at 40 uM GlcN6P” value (glucosamine-6-phosphate [7]) was less than 1e-05 s⁻¹ and the “self-cleavage kobs at 2500 uM GlcN6P” value (glucosamine-6-phosphate [4]) was 2.67e-05 ± 1.3e-05 s⁻¹.

U49G C70U was tested, and the kcat (glucosamine-6-phosphate [1]) was 0.001 ± 4.7e-05 s⁻¹, the KM (glucosamine-6-phosphate [2]) was 1860 ± 160 µM and the “self-cleavage kobs at 40 uM GlcN6P” value (glucosamine-6-phosphate [7]) was 2.78e-05 ± 1.2e-05 s⁻¹. The “self-cleavage kobs at 160 uM GlcN6P” value (glucosamine-6-phosphate [6]) was 7.37e-05 ± 1.3e-05 s⁻¹, the “self-cleavage kobs at 640 uM GlcN6P” value (glucosamine-6-phosphate [3]) was 0.000263 ± 3e-05 s⁻¹ and the “self-cleavage kobs at 2500 uM GlcN6P” value (glucosamine-6-phosphate [4]) was 0.00059 ± 7.5e-05 s⁻¹. For the same variant, the “self-cleavage kobs at 10000 uM GlcN6P” value (glucosamine-6-phosphate [5]) was 0.000837 ± 7.5e-05 s⁻¹.

For U55A G59U, the kcat (glucosamine-6-phosphate [1]) was 1.92e-05 ± 2.2e-06 s⁻¹ and the “self-cleavage kobs at 2500 uM GlcN6P” value (glucosamine-6-phosphate [4]) was less than 1e-05 s⁻¹.

Variant A12G C16U C34G C67G has a kcat (glucosamine-6-phosphate [1]) of 1.6e-05 ± 3.8e-06 s⁻¹.

In the case of U31C U57A, the kcat (glucosamine-6-phosphate [1]) is reported as 2.49e-05 ± 2.1e-06 s⁻¹ and the “self-cleavage kobs at 2500 uM GlcN6P” value (glucosamine-6-phosphate [4]) is reported as 2.32e-05 ± 9.8e-06 s⁻¹.

For C11U U55A U56G, the kcat (glucosamine-6-phosphate [1]) was 0.000956 ± 0.00038 s⁻¹, the “self-cleavage kobs at 40 uM GlcN6P” value (glucosamine-6-phosphate [7]) was 4.23e-05 ± 1.9e-05 s⁻¹ and the “self-cleavage kobs at 640 uM GlcN6P” value (glucosamine-6-phosphate [3]) was 0.000289 ± 4.5e-05 s⁻¹. For the same variant, the “self-cleavage kobs at 2500 uM GlcN6P” value (glucosamine-6-phosphate [4]) was 0.000451 ± 0.00012 s⁻¹ and the “self-cleavage kobs at 10000 uM GlcN6P” value (glucosamine-6-phosphate [5]) was 0.00113 ± 0.00024 s⁻¹.

G29C C71U was tested, and the kcat (glucosamine-6-phosphate [1]) was 0.00146 ± 0.0004 s⁻¹, the KM (glucosamine-6-phosphate [2]) was 1590 ± 700 µM and the “self-cleavage kobs at 40 uM GlcN6P” value (glucosamine-6-phosphate [7]) was 6.23e-05 ± 7.6e-06 s⁻¹. The “self-cleavage kobs at 160 uM GlcN6P” value (glucosamine-6-phosphate [6]) was 0.000119 ± 1.8e-05 s⁻¹, the “self-cleavage kobs at 640 uM GlcN6P” value (glucosamine-6-phosphate [3]) was 0.000356 ± 4.9e-05 s⁻¹ and the “self-cleavage kobs at 2500 uM GlcN6P” value (glucosamine-6-phosphate [4]) was 0.000805 ± 9.7e-05 s⁻¹. The “self-cleavage kobs at 10000 uM GlcN6P” value (glucosamine-6-phosphate [5]) was 0.00143 ± 0.00015 s⁻¹.

For G29U U54A C67G, the kcat (glucosamine-6-phosphate [1]) was 8.75e-05 ± 2.6e-05 s⁻¹, the “self-cleavage kobs at 160 uM GlcN6P” value (glucosamine-6-phosphate [6]) was 5.68e-05 ± 1.4e-05 s⁻¹ and the “self-cleavage kobs at 640 uM GlcN6P” value (glucosamine-6-phosphate [3]) was 8.37e-05 ± 1.3e-05 s⁻¹. For the same variant, the “self-cleavage kobs at 2500 uM GlcN6P” value (glucosamine-6-phosphate [4]) was 0.000134 ± 2.5e-05 s⁻¹ and the “self-cleavage kobs at 10000 uM GlcN6P” value (glucosamine-6-phosphate [5]) was 5.17e-05 ± 2e-05 s⁻¹.

In the case of U45A A64C, the kcat (glucosamine-6-phosphate [1]) is reported as 0.000366 ± 4.6e-05 s⁻¹, the KM (glucosamine-6-phosphate [2]) is reported as 2520 ± 570 µM and the “self-cleavage kobs at 640 uM GlcN6P” value (glucosamine-6-phosphate [3]) is reported as 7.26e-05 ± 1.9e-05 s⁻¹. For the same variant, the “self-cleavage kobs at 2500 uM GlcN6P” value (glucosamine-6-phosphate [4]) was 0.000193 ± 3.8e-05 s⁻¹ and the “self-cleavage kobs at 10000 uM GlcN6P” value (glucosamine-6-phosphate [5]) was 0.000277 ± 7.6e-05 s⁻¹.

C11U G37A was tested, and the kcat (glucosamine-6-phosphate [1]) was 7.88e-05 ± 6.9e-07 s⁻¹, the KM (glucosamine-6-phosphate [2]) was 1070 ± 36 µM and the “self-cleavage kobs at 640 uM GlcN6P” value (glucosamine-6-phosphate [3]) was 2.98e-05 ± 9.1e-06 s⁻¹. For the same variant, the “self-cleavage kobs at 2500 uM GlcN6P” value (glucosamine-6-phosphate [4]) was 5.51e-05 ± 9.5e-06 s⁻¹ and the “self-cleavage kobs at 10000 uM GlcN6P” value (glucosamine-6-phosphate [5]) was 7.12e-05 ± 8.2e-06 s⁻¹.

For G32A A64G, the kcat (glucosamine-6-phosphate [1]) was 0.00438 ± 0.00041 s⁻¹, the KM (glucosamine-6-phosphate [2]) was 6200 ± 820 µM and the “self-cleavage kobs at 40 uM GlcN6P” value (glucosamine-6-phosphate [7]) was 2.33e-05 ± 9.5e-06 s⁻¹. For the same variant, the “self-cleavage kobs at 160 uM GlcN6P” value (glucosamine-6-phosphate [6]) was 0.000104 ± 1.8e-05 s⁻¹, the “self-cleavage kobs at 640 uM GlcN6P” value (glucosamine-6-phosphate [3]) was 0.000433 ± 5.6e-05 s⁻¹ and the “self-cleavage kobs at 2500 uM GlcN6P” value (glucosamine-6-phosphate [4]) was 0.00144 ± 0.00035 s⁻¹. The “self-cleavage kobs at 10000 uM GlcN6P” value (glucosamine-6-phosphate [5]) was 0.00267 ± 0.00027 s⁻¹.
